Like-named read-outs stand apart in the source and are kept apart here.

The koff is a measure of how fast the partners let go of each other. High values mean fast dissociation, low ones slow dissociation. As a reminder, the kon is a measure of how fast the partners come together. A high value points to faster complex formation. One may read the Kd as the concentration at which binding is half-saturated. A lower Kd goes with a tighter complex.

Assay [1] deals with T1, S1-Fc (SARS-CoV-2, UniProt P0DTC2 16-685). Nature of the assay: phage ELISA. On the technique in general: In an ELISA, binding on a coated surface is turned into a signal by an enzyme label.
Assay [2] has as its target T2, COVID S1 RBM Fc fusion (Antigen 2) (SARS-CoV-2, UniProt P0DTC2 437-508).
T2 construct: domain: RBM
Nature of the assay: phage ELISA.

Assay [3] has as its target T1, S1-Fc. Nature of the assay: phage ELISA. This is another data set of the same source.
Assay [4] deals with T2, COVID S1 RBM Fc fusion (Antigen 2). The experiment in a line: phage ELISA. This is another data set of the same source.
The target in assay [5] is T3, SARS-CoV-2 S1 (antigen of the Carterra SPR kinetics) (SARS-CoV-2, UniProt P0DTC2 16-685). The experiment in a line: Carterra SPR.
Assay [6] has as its target T3, SARS-CoV-2 S1 (antigen of the Carterra …). The experiment in a line: Carterra SPR. This is another data set of the same source.
Assay [7] deals with T4, SARS-CoV-2 Spike Glycoprotein S1 (subunit 1) (SARS-CoV-2, UniProt P0DTC2 16-685).
T4 construct: also called S1 Monomer; SARS-CoV-2 S1
Nature of the assay: screening phage ELISA, mean.

Assay [8] deals with T4, SARS-CoV-2 Spike Glycoprotein S1 …. Nature of the assay: screening phage ELISA, mean. This is another data set of the same source.

B1: 1-2 (antibody, V domains shown)
VH: EVQLLESGGGLVQPGGSLRLSCAASGFTFSSQAMSWVRQAPGKGLEWVSAISGSGGGTYYADSVKGRFTISRDNSKNTLYLQMNSLRAEDTAVYYCAKDRRFGEFDPWGQGTLVTVSS
VL: QSALTQPASVSGSPGQSITISCTGTSSGVGSYNLVSWYQQHPGKAPKLMIYEGIKRPSGVSNRFSGSKSGNTASLTISGLQAEDEADYYCCSYAGSSSFVVFGGGTKLTVL
notes: also called variant 1-2
Regarding B1, the “ELISA fold over background” value in assay [1], in assay [2], in assay [3] and in assay [4] was 1.7 fold over background throughout. The koff in assay [5] and in assay [6] was 0.0272 s⁻¹ throughout. Further, the kon in assay [5] and in assay [6] was 1580 M⁻¹ s⁻¹ throughout. The same molecule yielded a Kd in assay [6] of 17.2 µM.

B2: 1-12 (antibody, V domains shown)
VH: EVQLLESGGGLVQPGGSLRLSCAASGITFSSYAMSWVRQAPGKGLEWVSGISGSGGSTYYADSVKGRFTISRDNSKNTLYLQMNSLRAEDTAVYYCAKHGSGTIFGVVIAKYYFDYWGQGTLVTVSS
VL: QSALTQPASVSGSPGQSITISCTGTSSDVGHYNLVSWYQQHPGKAPKLMIYEGTKRPSGVSNRFSGSKSGNTASLTISGLQAEDEADYYCCSYAGSSSFVVFGGGTKLTVL
notes: also called variant 1-12
Turning to B2, in assay [6], the Kd came to 0.372 µM.

B3: 1-35 (antibody, V domains shown)
VH: EVQLLESGGGLVQPGGSLRLSCAASGFTFSNYAMSWVRQAPGKGLEWVSDISGSGGSTYYADSVKGRFTISRDNSKNTLYLQMNSLRAEDTAVYYCVKGTIPIFGVIRSAFDYWGQGTLVTVSS
VL: QSALTQPASVSGSPGQSITISCTGTSSDVGSYSLVSWYQQHPGKAPKLMIYEGTKRPSGVSNRFSGSKSGNTASLTISGLQAEDEADYYCCSYAGSYSYVVFGGGTKLTVL
notes: also called variant 1-35
Regarding B3, the “ELISA fold over background” value in assay [2] and in assay [4] was 1.6 fold over background throughout.

B4: 1-5 (antibody, V domains shown)
VH: EVQLLESGGGLVQPGGSLRLSCAASGFTFSSQAMSWVRQAPGKGLEWVSAISGSGGGTYYADSVKGRFTISRDNSKNTLYLQMNSLRAEDTAVYYCAKDRRFGEFDPWGQGTLVTVSS
VL: QSALTQPASVSGSPGQSITISCTGTSSGVGSYNLVSWYQQHPGKAPKLMIYEASKRPSGVSNRFSGSKSGNTASLTISGLQAEDEADYYCCSYAGSYTFAVFGGGTKLTVL
notes: also called variant 1-5
For the molecule B4, the “ELISA fold over background” value in assay [1] stood at 1.2 fold over background; in assay [2] it was 1.4 fold over background; in assay [3] it was 1.2 fold over background; in assay [4] it was 1.4 fold over background. The off-rate (koff) in assay [5] and in assay [6] was 0.054 s⁻¹ in each case. In addition, the kon in assay [5] and in assay [6] was 2150 M⁻¹ s⁻¹ throughout. The molecule also showed a Kd in assay [6] of 25.2 µM.

B5: 1-3 (antibody, V domains shown)
VH: EVQLLESGGGLVQPGGSLRLSCAASGFTFSSQAMSWVRQAPGKGLEWVSAISGSGGGTYYADSVKGRFTISRDNSKNTLYLQMNSLRAEDTAVYYCAKDRRFGEFDPWGQGTLVTVSS
VL: QSALTQPASVSGSPGQSITISCTGISSDVGSYNLVSWYQQHPGKAPKLMIYEGTKRPSGVSNRFSGSKSGNTASLTISGLQAEDEADYYCCSYAGSSSFVVFGGGTKLTVL
notes: also called variant 1-3
Consider B5, for which the “ELISA fold over background” value in assay [1], in assay [2], in assay [3] and in assay [4] was 1.5 fold over background throughout. Further, the koff in assay [5] and in assay [6] was 0.304 s⁻¹ each time. Besides, the kon in assay [5] and in assay [6] was 1.42e+06 M⁻¹ s⁻¹ in each case. Moreover, in assay [6], the Kd was 0.215 µM.

B6: 1-4 (antibody, V domains shown)
VH: EVQLLESGGGLVQPGGSLRLSCAASGFTFSSQAMSWVRQAPGKGLEWVSAISGSGGGTYYADSVKGRFTISRDNSKNTLYLQMNSLRAEDTAVYYCAKDRRFGEFDPWGQGTLVTVSS
VL: QSALTQPASVSGSPGQSITISCTGTSSDVGTYNLVSWYQQHPGKAPKLMIYEGSQRPSGVSNRFSGSKSGNTASLTISGLQAEDEADYYCCSYAGSSSFVVFGGGTKLTVL
notes: also called variant 1-4
On to B6, for which the “ELISA fold over background” value stood at 0.9 fold over background in assay [1], 1.1 fold over background in assay [2], 0.9 fold over background in assay [3] and 1.1 fold over background in assay [4]. The dissociation rate constant (koff) in assay [5] and in assay [6] was 0.124 s⁻¹ each time. The kon in assay [5] and in assay [6] was 42000 M⁻¹ s⁻¹ in each case. The molecule further showed a Kd in assay [6] of 2.95 µM.

B7: 1-20 (antibody, V domains shown)
VH: EVQLLESGGGLVQPGGSLRLSCAASGITFSSYAMSWVRQAPGKGLEWVSGISGSGGSTYYADSVKGRFTISRDNSKNTLYLQMNSLRAEDTAVYYCANHGSGTIFGVVIAKYYFDYWGQGTLVTVSS
VL: QSALTQPASVSGSPGQSITISCTGTSSDVGHYNLVSWYQQHPGKAPKLMIYEGTKRPSGVSNRFSGSKSGNTASLTISGLQAEDEADYYCCSYAGSSSFVVFGGGTKLTVL
notes: also called variant 1-20
In the case of B7, the “ELISA fold over background” value in assay [2] and in assay [4] was 0.8 fold over background each time.

B8: 1-23 (antibody, V domains shown)
VH: EVQLLESGGGLVQPGGSLRLSCAASGFTFSSYAISWVRQAPGKGLEWVSIISGSGGSTYYADSVKGRFTISRDNSKNTLYLQMNSLRAEDTAVYYCAREGYRDYLWYFDLWGQGTLVTVSS
VL: QSALTQPASVSGSPGQSITISCTGTSNDVGSYNLVSWYQQHPGKAPKLMIYEGNKRPSGVSNRFSGSKSGNTASLTISGLQAEDEADYYCCSYAGSYTVFGGGTKLTVL
Turning to B8, the “ELISA (Avg)” value in assay [7] and in assay [8] was 23.1 each time.

B9: 1-29 (antibody, V domains shown)
VH: EVQLLESGGGLVQPGGSLRLSCAASGFTFSSYAMYWVRQAPGKGLEWVSAISGSAGSTYYADSVKGRFTISRDNSKNTLYLQMNSLRAEDTAVYYCARDTNDFWSGYSIFDPWGQGTLVTVSS
VL: QSALTQPASVSGSPGQSITISCTGTSSDIGSYNLVSWYQQHPGKAPKLMIYEGTKRPSGVSNRFSGSKSGNTASLTISGLQAEDEADYYCCSYAGSRTYVFGGGTKLTVL
notes: also called variant 1-29
For the molecule B9, the “ELISA fold over background” value came out at 1 fold over background in assay [1], 0.9 fold over background in assay [2], 1 fold over background in assay [3] and 0.9 fold over background in assay [4]. The koff in assay [5] and in assay [6] was 0.00197 s⁻¹ in each case. Also, the kon in assay [5] and in assay [6] was 535 M⁻¹ s⁻¹ each time. The Kd in assay [6] worked out at 3.68 µM.

B10: 1-49 (antibody, V domains shown)
VH: EVQLLESGGGLVQPGGSLRLSCAASGFTFSSYAMYWVRQAPGKGLEWVSAISGSAGSTYYADSVKGRFTISRDNSKNTLYLQMNSLRAEDTAVYYCARDTNDFWGQGTLVTVSS
VL: QSALTQPASVSGSPGQSITISCTGTSSDIGSYNLVSWYQQHPGKAPKLMIYEGTKRPSGVSNRFSGSKSGNTASLTISGLQAEDEADYYCCSYAGSRTYVFGGGTKLTVL
notes: also called variant 1-49
For the molecule B10, the “ELISA fold over background” value in assay [2] and in assay [4] was 0.8 fold over background throughout.

B11: 1-48 (antibody, V domains shown)
VH: EVQLLESGGGLVQPGGSLRLSCAASGFTFSSHAMYWVRQAPGKGLEWVSAISGSAGSTYYADSVKGRFTISRDNSKNTLYLQMNSLRAEDTAVYYCAHDTKDFWSGYCIFDPWGQGTLVTVSS
VL: QSALTQPASVSGSPGQSITISCTGTSSDIGSYNLVSWYQQHPGKAPKLMIYEGTKRPSGVSNRFSGSKSGNTASLTISGLQAEDEADYYCCSYAGSRTYVFGGGTKLTVL
notes: also called variant 1-48
Consider B11, for which the “ELISA fold over background” value in assay [2] and in assay [4] was 0.8 fold over background throughout.

The values are drawn from patent US20210395344A1 (TWIST BIOSCIENCE, published 2021).
